Reference: paper PMC3993263

Key:
[1] = molecular target: T1, RaaS (UniProt O86312); assay: fluorescence anisotropy; settings: anisotropy: 50 mM Tris-HCl pH 8.5, 150 mM NaCl, temperature not stated
T1 sequence: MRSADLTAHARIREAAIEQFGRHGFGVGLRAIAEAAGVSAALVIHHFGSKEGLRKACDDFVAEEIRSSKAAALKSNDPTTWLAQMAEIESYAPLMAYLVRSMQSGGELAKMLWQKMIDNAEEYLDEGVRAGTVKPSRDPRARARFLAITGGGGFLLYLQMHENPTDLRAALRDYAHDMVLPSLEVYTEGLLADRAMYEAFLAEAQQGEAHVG

[2] = molecular target: T2, RaaS (UniProt O86312 1-212); assay: EMSA; 20 nM DNA, 170 nM RaaS; […]; anisotropy: 50 mM Tris-HCl pH 8.5, 150 mM NaCl; temperature not stated; settings: protein: recombinant; tags: 6xHis (pET15-Tev); chain copies: 2; label: 32P; 5' overhang 3 nt on both strands
T2 sequence: T1 sequence

**Q.** “labeled RaaS-site oligonucleotide (anisotropy)” was tested. Which Kd [1] did it give?
**A.** 0.031 µM

B1: M5 (dsDNA)
DNA 1: GGGATGAACGTACGAAAAATATCCTGAACATGCGTTCAG
DNA 2: GGGCTGAACGCATGTTCAGGATATTTTTCGTACGTTCAT
**Q.** Does B1 bind [2]?
**A.** no binding

B2: M6 (single repeat) (dsDNA)
DNA 1: GGGTGAACATGCGTTCA
DNA 2: GGGTGAACGCATGTTCA
**Q.** Does B2 bind [2]?
**A.** no binding
